Assay: Near-infrared imaging of DIII-EphB4-EBD after conjugation with dye
Type: physicochemical
Details: after conjugation with near-infrared fluorescent dye, different concentrations, compared with Dye@DIII
Description: After induction, the supernatant of the BMMY induced expression culture was collected and sequentially filtered through 0.8 µm, 0.45 µm, and 0.22 µm membranes. The filtrate was then purified using an Albupure affinity column. The purified product was subjected to SDS-PAGE and near-infrared imaging for identification. As shown in Fig. 19 (left), the final eluate contained a highly purified product (indicated by the red dashed box).

B1: DIII-EphB4-EBD: fusion protein of albumin DIII and EphB4 ephrin-binding domain (SEQ ID NO: 14), tested after conjugation with near-infrared fluorescent dye (conjugate)
chain: VEEPQNLIKQNCELFEQLGEYKFQNALLVRYTKKVPQVSTPTLVEVSRNLGKVGSKCCKHPEAKRMPCAEDYLSVVLNQLCVLHEKTPVSDRVTKCCTESLVNRRPCFSALEVDETYVPKEFNAETFTFHADICTLSEKERQIKKQTALVELVKHKPKATKEQLKAVMDDFFVEKCCKADDKETCFAEEGKKLVSQLGLGGGGSGGGGSEETLLNTKLETADLKWVTFPQVDGQWEELSGLDEEQHSVRTYEVCDVQRAPGQAHWLRTGWVPRRGAVHVYATLRFTMLECLSLPRAGRSCKETFTVFYYESDADTATALTPAWMENPYIKVDTVAAEHLTRKRPGAEATGKVNVKTLRLGPLSKAGFYLAFQDQGACMALLSLHLFYKKCAQLTV
modifications: near-infrared fluorescent dye conjugated
fluorescence characteristics: fluorescence characteristics consistent with those of the original DIII
